From US20090156496A1, “METHODS AND COMPOSITIONS FOR TREATING AND PREVENTING PERIPHERAL NERVE DAMAGE” (CHILDREN'S MEDICAL CENTER CORPORATION, INC., priority 2006, published 2009)
“Also recorded” adds a separate entry of the source.

Key:
RGCs [1] = assay: axon outgrowth in primary adult retinal cultures; format: cell-based, rat
Method: Protein A beads (Sigma) were incubated with either rabbit anti-OM antiserum (Swant) or normal rabbit serum (Invitrogen) for 16 h at 4° C. After extensive rinsing, beads with adsorbed IgGs were mixed with MCM (1 ml 10× concentrate, collected 8 h after zymosan treatment) for 24 h at 4° C. and then pelleted down by centrifugation. We tested 5 μl of the supernatants or untreated MCM for oncomodulin by western blotting. Bioactivity of immune-depleted and control MCM was tested in dissociated RGC cultures as described below at a 1:4 dilution, a concentration found to give a near-maximal response.
(§1) Adult rat retinal cultures were prepared as described^21. […] One week later, retinas were dissected, dissociated, and the cells plated in defined, serum-free medium. Axon growth (% RGCs extending axons ≧30 μm, ≧70 μm or ≧140 μm in length) was evaluated after 3 d in quadruplicate samples in a blinded fashion. All experiments were repeated at least three separate times. In some instances, cells were immunostained with GAP-43 antibody (1:500, Chemicon).

RGCs [2] = assay: ligand binding assay with AP-oncomodulin fusion proteins on immunopurified RGCs; set-up: species or system rat
Method: Adult rat retinal cells were dissociated as above and then isolated by immunopanning^31,46 using antibody MAC1 followed by an antibody to Thy1 (Chemicon). Purity was ˜98% based upon counting Fluorogold-labeled versus total cells. RGCs, treated with or without forskolin, were lightly fixed after 14-16 h in culture (4% paraformaldehyde (PFA), 6 min) before binding assays.
Binding assays were carried out as described^48 with slight modifications. Briefly, lightly fixed, immunopurified RGCs were incubated with AP-OM or AP (37° C., 24 h).
After extensive rinsing, cells were fixed again, heated (65° C., 90 min) to destroy endogenous AP and incubated with nitro blue tetrazolium chloride/5-bromo-4-chloro-3-indoyl phosphate toluidine salt (BCIPINBT). In some instances, AP-OM or AP (control), with or without forskolin, was added to the cultures before the initial fixation. Absorbance was measured with Image J software (US National Institutes of Health) and corrected by subtracting the level of AP binding. Binding curves and Scatchard plots were generated using Prism software. For displacement studies, varying concentrations of unlabeled oncomodulin were added to cultures after the equilibrium binding of 40 mM AP-OM at 37° C. for 24 h.

RGCs [3] = assay: RGC survival in primary retinal cultures; format: cell-based, rat; settings: retinal culture
Method: as §1

optic nerve = optic nerve regeneration in vivo after nerve crush, intraocular PLGA microspheres; set-up: species or system rat; settings: 2 weeks, agent by itself
Method: Microspheres were prepared from lyophilized oncomodulin or sp-8-Br-cAMPs (Sigma) with PLGA using the solvent evaporation method of single emulsion^49. To measure the rate of protein release in vitro, 10 mg of oncomodulin-containing beads were incubated in phosphate-buffered saline (PBS; 37° C.). Supernatants were collected every 3 d and analyzed on western blots.
Optic nerve surgery was carried out on male Fisher rats (200-250 g) as described^18. Three days after nerve crush, rats received intraocular injections of blank microspheres or microspheres containing oncomodulin, sp-8-Br-cAMPs or both, in 10 μl saline after the same fluid volume was withdrawn from the eye (n=8-12 per group). Rats were killed 2 weeks later and their retinas, with optic nerves attached, were prepared as described^18,21. Axon growth was evaluated by GAP-43 immunostaining in the optic nerve at distances of 500 μm and 1 mm from the injury site^18,21. The length of the longest axon was measured in each case and averaged across all cases within each group.

P-CREB = P-CREB immunostaining in RGCs after intravitreous injection; format: in vivo, rat; settings: 2 h after intravitreous injection, 1 μg μl^−1, 5 μl
Method: To investigate the immediate effects of oncomodulin in vivo, rats received an intravitreous injection of the protein (1 μg μl^−1, 5 μl volume, n=6) and were killed 2 h later. Retinal sections were immunostained to detect the phosphorylated form of the transcriptional activator CREB (antibody to P-CREB, 1:100, Cell Signaling Technology). Fluorescent photomicrographs were taken 2 mm from the optic nerve head.

DRG neurons [4] = assay: neurite outgrowth of DRG neurons cultured after intraganglionic injection in vivo; format: cell-based, rat
Method: (§2) L4-L5 DRGs from adult male Sprague-Dawley rats (250-300 g) were injected with 5 μl of saline or oncomodulin (200 ng μl^−1). After 7 d, injected ganglia were dissected and single-cell suspensions were prepared as described^50. Cells were cultured on laminin (Sigma) with or without CSPGs (Chemicon) for 20 h or 40 h. In some cases, chondroitinase ABC (0.5 U ml^−1, Seikagaku) was added. Neurite outgrowth was visualized by Tuj1 antibody to class III β-tubulin (1:5,000, Babco) and quantified in quadruplicate samples by a blinded observer. In other studies, L4-L5 DRG neurons were cultured in the presence of absence of oncomodulin, mannose and/or forskolin in RPMI-1640 to limit spontaneous outgrowth. Cells were fixed and immunostained after 3 d and evaluated for outgrowth.

DRG neurons [5] = assay: neurite outgrowth of naive DRG neurons in culture; format: cell-based, rat; settings: 3 d culture
Method: as §2

[6] = in the absence of forskolin and mannose
[7] = in the presence of forskolin and mannose, 3 d, BDNF 50 ng ml^−1, CNTF 10 ng ml^−1, GDNF 50 ng ml^−1

B1: CNTF: ciliary neurotrophic factor (protein, UniProt P26441 1-200, looked up)
Ciliary neurotrophic factor: MAFTEHSPLTPHRRDLCSRSIWLARKIRSDLTALTESYVKHQGLNKNINLDSADGMPVASTDQWSELTEAERLQENLQAYRTFHVLLARLLEDQQVHFTPTEGDFHQAIHTLLLQVAAFAYQIEELMILLEYKIPRNEADGMPINVGDGGLFEKKLWGLKVLQELSQWTVRSIHDLRFISSHQTGIPARGSHYIANNKKM
axon outgrowth from RGCs in culture (RGCs [1]; [6]): Neither oncomodulin nor any of the other factors stimulated outgrowth | axon outgrowth from RGCs in culture (RGCs [1]; [7]): increased axon growth

B2: AP-OM: alkaline phosphatase (AP)-oncomodulin fusion protein (protein)
chain: MSITDILSAEDIAAALQECQDPDTFEPQKFFQTSGLSKMSASQVKDIFRFIDNDQSGYLDGDELKYFLQKFQSDARELTESETKSLMDAADNDGDGKIGADEFQEMVHS
modifications: left off: large carriers; small tags and cut ends
notes: alkaline phosphatase (AP)-oncomodulin fusion protein
binding to RGCs (RGCs [2]; [cAMP]i elevated with forskolin): bound strongly | binding to RGCs (RGCs [2]; basal conditions (no forskolin)): Neither AP-OM nor AP showed appreciable binding | binding to RGCs (RGCs [2]; untreated RGCs permeabilized after light fixation, no forskolin): bound even without previous forskolin treatment

B3: oncomodulin: 11.7-kDa Ca2+-binding protein secreted by macrophages; recombinant rat oncomodulin expressed in Escherichia coli (protein)
chain: SITDILSAEDIAAALQECQDPDTFEPQKFFQTSGLSKMSASQVKDIFRFIDNDQSGYLDGDELKYFLQKFQSDARELTESETKSLMDAADNDGDGKIGADEFQEMVHS
EC50 (RGCs [1]; RGCs, forskolin and mannose present, read-out: effective concentration for half-maximum response (EC50), axon outgrowth): ~3.8 nM | axon outgrowth from RGCs in culture (RGCs [1]; [6]): Neither oncomodulin nor any of the other factors stimulated outgrowth | axon outgrowth from RGCs in culture (RGCs [1]; [7]): nearly doubled the amount of outgrowth | RGC survival (RGCs [3]): Neither oncomodulin nor any other factor enhanced RGC survival above baseline | concentration at which binding saturated (RGCs [2]; AP-OM binding to RGCs): greater than 100 nM | Kd (RGCs [2]; AP-OM, forskolin-treated RGCs, Scatchard plot, read-out: dissociation constant (Kd), binding to RGCs): 28 ± 5 nM | IC50 (RGCs [2]; displacement of AP-OM by unlabeled oncomodulin, read-out: IC50, reversibility of binding to RGCs): ~30 nM | displacement of AP-OM from RGCs (RGCs [2]; excess unlabeled competitor (100-fold)): displaced AP-OM from RGCs | axon regeneration in optic nerve (optic nerve): had no effect | level of P-CREB in RGCs (P-CREB): markedly increased | DRG neurite outgrowth on nonpermissive substrate (DRG neurons [4]; CSPG substrate): promoted some outgrowth; also recorded: stimulated some outgrowth | DRG neurite outgrowth on permissive substrate (DRG neurons [4]; exposed in vivo 1 week, poly-D-lysine+laminin, vs vehicle): considerably greater outgrowth | outgrowth of previously untreated DRG neurons (DRG neurons [5]): acts on previously untreated DRG neurons

B4: BDNF: brain-derived neurotrophic factor (protein, UniProt P23560 19-247, looked up)
Neurotrophic factor BDNF …: APMKEANIRGQGGLAYPGVRTHGTLESVNGPKAGSRGLTSLADTFEHVIEELLDEDQKVRPNEENNKDADLYTSRVMLSSQVPLEPPLLFLLEEYKNYLDAANMSMRVRRHSDPARRGELSVCDSISEWVTAADKKTAVDMSGGTVTVLEKVPVSKGQLKQYFYETKCNPMGYTKEGCRGIDKRHWNSQCRTTQSYVRALTMDSKKRIGWRFIRIDTSCVCTLTIKRGR
axon outgrowth from RGCs in culture (RGCs [1]; [6]): Neither oncomodulin nor any of the other factors stimulated outgrowth | axon outgrowth from RGCs in culture (RGCs [1]; [7]): ineffective
